{
  "source": "patent US5496831",
  "biological_target": "E2F-1 (UniProt Q01094)",
  "sequence (Q01094 whole entry)": "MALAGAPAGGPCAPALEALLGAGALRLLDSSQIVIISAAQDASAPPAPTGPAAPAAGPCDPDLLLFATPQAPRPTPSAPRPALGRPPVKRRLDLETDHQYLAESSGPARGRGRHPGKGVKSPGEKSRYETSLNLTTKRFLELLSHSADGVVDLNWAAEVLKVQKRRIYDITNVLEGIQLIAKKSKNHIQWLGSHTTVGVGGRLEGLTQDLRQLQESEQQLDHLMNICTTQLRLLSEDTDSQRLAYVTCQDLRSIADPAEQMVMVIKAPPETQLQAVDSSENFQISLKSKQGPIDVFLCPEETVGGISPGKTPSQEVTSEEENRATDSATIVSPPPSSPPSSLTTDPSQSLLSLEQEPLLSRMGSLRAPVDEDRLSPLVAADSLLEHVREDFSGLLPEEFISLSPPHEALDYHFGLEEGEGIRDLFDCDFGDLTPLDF",
  "assay": "cell_activity",
  "details": "CHO cells, -T antigen; CAT/bGAL 5.2 vs 2.6",
  "data": [
    {"substance": "HGAPDH promoter (-487 to +21)-CAT", "values": [
      {"measurement": "activity", "value": 2, "unit": "fold"}
    ]}
  ]
}
